Assay results reported in patent US20230212319A1, “NOVEL ANTIGEN BINDING DOMAINS AND SYNTHETIC ANTIGEN RECEPTORS INCORPORATING THE SAME” (University of Southern California, priority 2020, published 2023).

B1: 22201 (protein)
chain: MALPVTALLLPLALLLHAARPACEVQLLESGGGLIQPGGSLRLSCAASGFTFSSHAMTWVRQAPGKGLEWVSAISGSGDYTHYADSVKGRFTISRDNSKNTVYLQMNSLRAEDSAVYYCAKDEDGGSLLGHRGQGTLVTVSSGTGGGGSGGGGSGGGGSEFAGHLEQPQISSTKTLSKTARLECVVSGITISATSVYWYRERPGEVIQFLVSISYDGTVRKESGIPSGKFEVDRIPETSTSTLTIHNVEKQDIATYYCALWEAQQELGKKIKVFGPGTKLIITDKQLDKQLDADVSPKPTIFLPSIAETKLQKAGTYLCLLEKFFPDVIKIHWQEKKSNTILGSQEGNTMKTNDTYMKFSWLTVPEKSLDKEHRCIVRHENNKNGVDQEIIFPPIKTDVITMDPKDNCSKDANDTLLLQLTNTSAYYMYLLLLLKSVVYFAIITCCLLRRTAFCCNGEKSRAKRSGSGATNFSLLKQAGDVEENPGPTSATMDWIWRILFLVGAATGAHSGPQVQLQESGGGLAQAGGSLRLSCAASGRTFSMGWFRQAPGKEREFVAAITYSGGSPYYASSVRGRFTISRDNAKNTVYLQMNSLKPEDTAVYYCAANPTYGSDWNAENWGQGTQVTVSSGSGGGGSGGGGSGGGGSFEAIELVPEHQTVPVSIGVPATLRCSMKGEAIGNYYINWYRKTQGNTMTFIYREKDIYGPGFKDNFQGDIDIAKNLAVLKILAPSERDEGSYYCACDTLGMGGEYTDKLIFGKGTRVTVEPRSQPHTKPSVFVMKNGTNVACLVKEFYPKDIRINLVSSKKITEFDPAIVISPSGKYNAVKLGKYEDSNSVTCSVQHDNKTVHSTDFEVKTDSTDHVKPKETENTKQPSKSCHKPKAIVHTEKVNMMSLTVLGLRMLFAKTVAVNFLLTAKLFFLRAKRSGSGVKQTLNFDLLKLAGDVESNPGPSRAHMTEYKPTVRLATRDDVPRAVRTLAAAFADYPATRHTVDPDRHIERVTELQELFLTRVGLDIGKVWVADDGAAVAVWTTPESVEAGAVFAEIGPRMAELSGSRLAAQQQMEGLLAPHRPKEPAWFLATVGVSPDHQGKGLGSAVVLPGVEAAERAGVPAFLETSAPRNLPFYERLGFTVTADVEVPEGPRTWCMTRKPGA
B2: 22105 (protein)
chain: MALPVTALLLPLALLLHAARPDIQMTQSPSSLSASVGDRVTITCKASDHINNWLAWYQQKPGQAPKLLIYGATTLETGVPSRFSGSGSGTDYTLTISSLQPEDFATYYCQQSWNTPWTFGQGTKLEIKRLEDLKNVFPPEVAVFEPSEAEISHTQKATLVCLATGFYPDHVELSWWVNGKEVHSGVCTDPQPLKEQPALNDSRYCLSSRLRVSATFWQNPRNHFRCQVQFYGLSENDEWTQDRAKPVTQIVSAEAWGRADCGFTSESYQQGVLSATILYEILLGKATLYAVLVSALVLMAMVKRKDSRGRAKRSGSGATNFSLLKQAGDVEENPGPTSATMDWIWRILFLVGAATGAHSGPQVQLQESGGGLAQAGGSLRLSCAASGRTFSMGWFRQAPGKEREFVAAITYSGGSPYYASSVRGRFTISRDNAKNTVYLQMNSLKPEDTAVYYCAANPTYGSDWNAENWGQGTQVTVSSGSGGGGSGGGGSGGGGSFEQVQLQQPGAELVKPGASVKMSCKASGYAFSSYWINWMKQKPGQGLEWIGQIYPGDGDTNYNGKFKGRATLTADTSSSTAYMQLSSLTSEDSAVYFCARSITTVVGCAMDYWGQGTSVTVSSTRIQNPDPAVYQLRDSKSSDKSVCLFTDFDSQTNVSQSKDSDVYITDKCVLDMRSMDFKSNSAVAWSNKSDFACANAFNNSIIPEDTFFPSPESSCDVKLVEKSFETDTNLNFQNLSVIGFRILLLKVAGFNLLMTLRLWSSRAKRSGSGVKQTLNFDLLKLAGDVESNPGPSRGHMTEYKPTVRLATRDDVPRAVRTLAAAFADYPATRHTVDPDRHIERVTELQELFLTRVGLDIGKVWVADDGAAVAVWTTPESVEAGAVFAEIGPRMAELSGSRLAAQQQMEGLLAPHRPKEPAWFLATVGVSPDHQGKGLGSAVVLPGVEAAERAGVPAFLETSAPRNLPFYERLGFTVTADVEVPEGPRTWCMTRKPGA

Assays:
[1] = tested on: RAJI-CD19-KO cells; assay: JNG assay, co-culture with RAJI-CD19-KO cells; assay type: cell-based; details: co-culture with Raji-CD19-KO
How it was run: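 Read-out is NFAT-driven GFP measured by flow cytometry after ~4–18 h co-culture of SAR-expressing JNG cells with target cells (E:T about 1:2). SARs were introduced by lentiviral spinfection and selected with puromycin or blasticidin when possible; scores (+/- to 5+ ≈ 5–50% GFP+) are relative to parental JNG cells.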

[2] = tested on: Nalm6 cells; assay: JNG assay, co-culture with Nalm6 cells; assay type: cell-based; details: co-culture with Nalm6
How it was run: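 Read-out: % GFP-positive cells by flow cytometry after ~4 to 18 h coculture of SAR-transduced JNG cells with targets (E:T about 1:2). Scores reflect GFP induction above parental JNG controls: +/- ≈5%, + ≈10%, up to 5+ ≈50%.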

Molecule	NFAT-GFP ASSAY: Raji-CD19-KO [1]	NFAT-GFP ASSAY: Nalm6 [2]
B1	2+ (refer to approximately 5%, 10%, 20%, 30%, 40% and 50% GFP positive cells)	+/- (refer to approximately 5%, 10%, 20%, 30%, 40% and 50% GFP positive cells)
B2	4+ (refer to approximately 5%, 10%, 20%, 30%, 40% and 50% GFP positive cells)	5+ (refer to approximately 5%, 10%, 20%, 30%, 40% and 50% GFP positive cells)
